Laboratory results published in the RNAGym collection of RNA variant scans (doi:10.7554/elife.80360).

B1: CPEB3 Ribozyme (parent)
chain: GGGGGCCACAGCAGAAGCGUUCACGUCGCGGCCCCUGUCAGAUUCUGGUGAAUCUGCGAAUUCUGCUGU

Variants of: B1
Experiment: self-cleavage, relative activity (ratio to wild type); higher = more cleavage; co-transcriptional

**Q.** Which self-cleavage does the source give for GGGGGCCACAUCAGAAGCGUUCACGUCGCGGCCCCUGUCAGAUUCUGGUGAAUCUGCGAAUUCUGCUGG here?
**A.** Its self-cleavage is 0.968.

**Q.** For GGGGGCCACAUCAGAAGCGUUCACGUCGCGGCCCCUGUCAGAUUCUGGUGAAUCUGCGAAUUCUGCUGA, which self-cleavage is on record?
**A.** The self-cleavage was 0.958.

**Q.** For GGGGGCCACAUCAGAAGCGUUCACGUCGCGGCCCCUGUCAGAUUCUGGAGAAUCUGCGAAUUCUGCUGU, which self-cleavage is on record?
**A.** The self-cleavage was 0.941.

**Q.** With GGGGGCCACAUCAGAAGCGUUCACGUCGCGGCCCCUGUCAGAUUCUGGCGAAUCUGCGAAUUCUGCUGU as the variant, how does the self-cleavage read?
**A.** The self-cleavage was 0.847.

**Q.** For GGGGGCCACAUCAGAAGCGUUCACGUCGCGGCCCCUGUCAGAUUCUGGGGAAUCUGCGAAUUCUGCUGU, which self-cleavage is on record?
**A.** The self-cleavage was 0.98.

**Q.** With GGGGGCCACAGAAGAAGCGUUCACGUCGCGGCCCCUGUCAGAUUCUGGUGAAUCUGCGGAUUCUGCUGU as the variant, how does the self-cleavage read?
**A.** The self-cleavage was 0.653.

**Q.** Which self-cleavage does the source give for GGGGGCCACAGAAGAAGCGUUCACGUCGCGGCCCCUGUCAGAUUCUGGUGAAUCUGCGUAUUCUGCUGU here?
**A.** The self-cleavage was 0.343.

**Q.** With GGGGGCCACAGAAGAAGCGUUCACGUCGCGGCCCCUGUCAGAUUCUGGUGAAUCUGCGCAUUCUGCUGU as the variant, how does the self-cleavage read?
**A.** Its self-cleavage is 0.347.

**Q.** Which self-cleavage does the source give for GGGGGCCACAUCAGAAGCGUUCACGUCGCGGCCCCUGUCAGAUUCUGGUGAAUCGGCGAAUUCUGCUGU here?
**A.** Its self-cleavage is 0.225.

**Q.** For GGGGGCCACAGAAGAAGCGUUCACGUCGCGGCCCCUGUCAGCUUCUGGUGAAUCUGCGAAUUCUGCUGU, which self-cleavage is on record?
**A.** Its self-cleavage is 0.413.

**Q.** For GGGGGCCACAGAAGAAGCGUUCACGUCGCGGCCCCUGUCAGGUUCUGGUGAAUCUGCGAAUUCUGCUGU, which self-cleavage is on record?
**A.** Its self-cleavage is 0.41.

**Q.** Which self-cleavage does the source give for GGGGGCCACAUCAGAAGCGUUCACGUCGCGGCCCCUGUCAGAUUCUCGUGAAUCUGCGAAUUCUGCUGU here?
**A.** Its self-cleavage is 0.954.

**Q.** Which self-cleavage does the source give for GGGGGCCACAUCAGAAGCGUUCACGUCGCGGCCCCUGUCAGAUUCUAGUGAAUCUGCGAAUUCUGCUGU here?
**A.** Its self-cleavage is 0.897.

**Q.** With GGGGGCCACAUCAGAAGCGUUCACGUCGCGGCCCCUGUCAGAUUCUGGUGAAUCUGCGAAUUCUGCGGU as the variant, how does the self-cleavage read?
**A.** The self-cleavage was 0.949.

**Q.** With GGGGGCCACAUCAGAAGCGUUCACGUCGCGGCCCCUGUCAGAUUCUGGUGAAUCUGCGAAUUCUGCCGU as the variant, how does the self-cleavage read?
**A.** The self-cleavage was 0.96.

**Q.** Which self-cleavage does the source give for GGGGGCCACAUCAGAAGCGUUCACGUCGCGGCCCCUGUCAGAUUCUGGUGAAUCUGCGAAUUCUGCAGU here?
**A.** The self-cleavage was 0.913.

**Q.** Which self-cleavage does the source give for GGGGGCCACAUCAGAAGCGUUCACGUCGCGGCCCCUGUCAGAUUCUGGUUAAUCUGCGAAUUCUGCUGU here?
**A.** Its self-cleavage is 0.916.

**Q.** For GGGGGCCACAUCAGAAGCGUUCACGUCGCGGCCCCUGUCAGAUUCUGGUCAAUCUGCGAAUUCUGCUGU, which self-cleavage is on record?
**A.** Its self-cleavage is 0.797.

**Q.** With GGGGGCCACAGAAGUAGCGUUCACGUCGCGGCCCCUGUCAGAUUCUGGUGAAUCUGCGAAUUCUGCUGU as the variant, how does the self-cleavage read?
**A.** Its self-cleavage is 0.106.

**Q.** For GGGGGCCACAGAAGCAGCGUUCACGUCGCGGCCCCUGUCAGAUUCUGGUGAAUCUGCGAAUUCUGCUGU, which self-cleavage is on record?
**A.** The self-cleavage was 0.274.

**Q.** With GGGGGCCACAGAAGGAGCGUUCACGUCGCGGCCCCUGUCAGAUUCUGGUGAAUCUGCGAAUUCUGCUGU as the variant, how does the self-cleavage read?
**A.** Its self-cleavage is 0.514.

**Q.** Which self-cleavage does the source give for GGGGGCCACAUCAGAAGCGUUCACGCCGCGGCCCCUGUCAGAUUCUGGUGAAUCUGCGAAUUCUGCUGU here?
**A.** The self-cleavage was 0.712.

**Q.** Which self-cleavage does the source give for GGGGGCCACAUCAGAAGCGUUCACGACGCGGCCCCUGUCAGAUUCUGGUGAAUCUGCGAAUUCUGCUGU here?
**A.** The self-cleavage was 0.552.

**Q.** Which self-cleavage does the source give for GGGGGCCACAGAAGAAGCGUUAACGUCGCGGCCCCUGUCAGAUUCUGGUGAAUCUGCGAAUUCUGCUGU here?
**A.** The self-cleavage was 0.144.

**Q.** Which self-cleavage does the source give for GGGGGCCACAUCAGAAGCGUUCACGUCGCGGCCCCUGUCAGAUUCUGGUGAAUCUGCGAAUUCUGCUUU here?
**A.** Its self-cleavage is 0.856.

**Q.** Which self-cleavage does the source give for GGGGGCCACAUCAGAAGCGUUCACGUCGCGGCCCCUGUCAGAUUCUGGUGAAUCUGCGAAUUCUGCUCU here?
**A.** The self-cleavage was 0.943.

**Q.** Which self-cleavage does the source give for GGGGGCCACAUCAGAAGCGUUCACGUCGCGGCCCCUGUCAGAUUCGGGUGAAUCUGCGAAUUCUGCUGU here?
**A.** The self-cleavage was 0.901.

**Q.** For GGGGGCCACAUCAGAAGCGUUCACGUCGCGGCCCCUGUCAGAUUCAGGUGAAUCUGCGAAUUCUGCUGU, which self-cleavage is on record?
**A.** The self-cleavage was 0.864.

**Q.** With GGGGGCCACAUCAGAAGCGUUCACGUCGCGGCCCCUGUCAGAUUCCGGUGAAUCUGCGAAUUCUGCUGU as the variant, how does the self-cleavage read?
**A.** Its self-cleavage is 0.79.

**Q.** Which self-cleavage does the source give for GGGGGCCACAGAAGAAGCGUUCACGUCGCGGCCCCUGUCAGAUUCUGGUGGAUCUGCGAAUUCUGCUGU here?
**A.** Its self-cleavage is 0.805.

**Q.** Which self-cleavage does the source give for GGGGGCCACAUCAGAAGCGUUCACGUCGCGGCCCCCGUCAGAUUCUGGUGAAUCUGCGAAUUCUGCUGU here?
**A.** The self-cleavage was 0.59.

**Q.** With GGGGGCCACAUCAGAAGCGUUCACGUCGCGGCCCCGGUCAGAUUCUGGUGAAUCUGCGAAUUCUGCUGU as the variant, how does the self-cleavage read?
**A.** The self-cleavage was 0.167.

**Q.** Which self-cleavage does the source give for GGGGGCCACAGACGAAGCGUUCACGUCGCGGCCCCUGUCAGAUUCUGGUGAAUCUGCGAAUUCUGCUGU here?
**A.** Its self-cleavage is 0.199.

**Q.** With GGGGGCCACAGAGGAAGCGUUCACGUCGCGGCCCCUGUCAGAUUCUGGUGAAUCUGCGAAUUCUGCUGU as the variant, how does the self-cleavage read?
**A.** The self-cleavage was 0.735.

**Q.** Which self-cleavage does the source give for GGGGGCCACAUCAGAAGCGUUCACGUCGCGGCCCCUGUCAGAUUCUGGUGAAUCUGCCAAUUCUGCUGU here?
**A.** Its self-cleavage is 0.857.

**Q.** For GGGGGCCACAUCAGAAGCGUUCACGUCGCGGCCCCUGUCAGAUUCUGGUGAAUCUGCAAAUUCUGCUGU, which self-cleavage is on record?
**A.** The self-cleavage was 0.846.

**Q.** Which self-cleavage does the source give for GGGGGCCACAUCAGAAGCGUUCACGUCGCGGCCCCUGUCAGAUUCUGGUGAAUCUGCUAAUUCUGCUGU here?
**A.** The self-cleavage was 0.891.

**Q.** For GGGGGCCACAUCAGAAGCGUUCACGUCGCGGCCCCUGUCAGAUUCUGGUGAAUCUGCGAAUUCUUCUGU, which self-cleavage is on record?
**A.** The self-cleavage was 0.68.

**Q.** Which self-cleavage does the source give for GGGGGCCACAUCAGAAGCGUUCACGUCGCGGCCCCUGUCAGAUUCUGGUGAAUCUGCGAAUUCUCCUGU here?
**A.** Its self-cleavage is 0.574.
